Non-standard residues stand in square brackets, D forms with d. No end group written: not given here.
molecular target: Aβ(1-40), naturally occurring all-[L] isomer (UniProt P05067 672-711); assay: cell-based or functional assay
Sequence (P05067 672-711 limits assumed): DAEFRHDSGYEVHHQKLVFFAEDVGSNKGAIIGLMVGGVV

Binder	order of potency as inhibitor of Aβ(1-40) fibril formation, thioflavin T fluorescence, peptide tested at 20µM (1 = strongest) [rank]	order of potency as inhibitor of Aβ(1-40) fibril formation, thioflavin T fluorescence, peptide tested at 80µM (1 = strongest) [rank]
[dK][dL][dV][dF][dF] [all-[D] Lys-Leu-Val-Phe-Phe]	9	10
[dK][dK][dL][dV][dF][dF][dA] [all-[D] Lys-Lys-Leu-Val-Phe-Phe-Ala]	2	1
[dA][dF][dF][dV][dL][dK] [all-[D] Ala-Phe-Phe-Val-Leu-Lys (retro-isomer)]	5	1
KKLVFFA [all-[L] Lys-Lys-Leu-Val-Phe-Phe-Ala]	10	7
KLVFFA [all-[L] Lys-Leu-Val-Phe-Phe-Ala]	8	8
[dK][dA][dV][dF][dF][dA] [all-[D] Lys-Ala-Val-Phe-Phe-Ala]	7	6
[dK][dL][dV][dF][dF][dA] [all-[D] Lys-Leu-Val-Phe-Phe-Ala]	3	1

The next lines start with the values.

order of potency as inhibitor of Aβ(1-40) fibril formation, thioflavin T fluorescence, peptide tested at 20µM (1 = strongest) [rank]	order of potency as inhibitor of Aβ(1-40) fibril formation, thioflavin T fluorescence, peptide tested at 80µM (1 = strongest) [rank]	Binder
6	9	[dK][dL][dV][dF] [all-[D] Lys-Leu-Val-Phe]
1	5	[dK][dI][dV][dF][dF][dA] [all-[D] Lys-Ile-Val-Phe-Phe-Ala]
11	11	AFFVLK (not fully specified) [all-[L] Ala-Phe-Phe-Val-Leu-Lys]
4	1	[dK][dF][dV][dF][dF][dA] [all-[D] Lys-Phe-Val-Phe-Phe-Ala]

From patent publication EP1173480B1 (Neurochem (International) Limited, dated 2008)
